Laboratory results reported in patent US20030220482A1, “Novel peptide antagonist of CXCR4 derived from the N-terminus of the viral chemokine vMIP-II” (priority 2000, published 2003).
Like-named read-outs stand apart in the source and are kept apart here.

Legend:
[1] = molecular target: T1, CXCR4 chemokine receptor (human), P61073
T1 chain: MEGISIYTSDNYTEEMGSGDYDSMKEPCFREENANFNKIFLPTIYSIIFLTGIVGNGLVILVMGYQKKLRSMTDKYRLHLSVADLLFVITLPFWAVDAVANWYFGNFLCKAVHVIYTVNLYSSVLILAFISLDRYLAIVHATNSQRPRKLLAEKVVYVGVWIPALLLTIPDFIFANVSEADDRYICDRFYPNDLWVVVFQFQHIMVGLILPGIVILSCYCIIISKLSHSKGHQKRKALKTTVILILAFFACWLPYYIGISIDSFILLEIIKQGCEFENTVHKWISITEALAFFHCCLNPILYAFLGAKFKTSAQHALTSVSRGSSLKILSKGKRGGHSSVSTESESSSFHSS

[2] = molecular target: T1, CXCR4 chemokine receptor (human), P61073; experiment: ^125I-SDF-1α competitive binding assay, IC50 against SDF-1
[3] = molecular target: T1, CXCR4 chemokine receptor (human), P61073; experiment: anti-CXCR4 mAb 12G5 competitive binding assay
[4] = molecular target: T1, CXCR4 chemokine receptor (human), P61073; experiment: anti-CXCR4 mAb 12G5 competitive binding assay, IC50 against SDF-1
[5] = molecular target: T1, CXCR4 chemokine receptor (human), P61073; experiment: cell-based or functional assay

## LGASWHRPDKCCLGYQKRPLP (modifications not checked) [V1 peptide (vMIP-II, 1-21)]
[1]
  IC50: 190 nM
[2]
  fold less potent than SDF-1: 70 fold
[3]
  IC50: 640 nM
[4]
  fold less potent than SDF-1: 33 fold
[5]
  chemotaxis assay, IC50: 1000 nM
  intracellular calcium influx in Sup T1 cells: block of the SDF-1 signal: 200 µM
